Assay in all cases: SPR; Biacore T200; […] (0.01 M HEPES, 0.15 M NaCl, 3 mM EDTA, 0.05% surfactant P20, […]
A general note: In SPR one partner is held on a chip, and binding of the other changes the refractive index at the surface.

Assay [1] addresses SARS-CoV-2 spike protein RBD, Alpha variant, sfGFP fusion (SARS-CoV-2) (UniProt P0DTC2).
The target in assay [2] is SARS-CoV-2 spike protein RBD, Delta variant, sfGFP fusion (SARS-CoV-2) (UniProt P0DTC2).
Assay [3] concerns the target SARS-CoV-2 spike protein RBD, Omicron variant, sfGFP fusion (SARS-CoV-2) (UniProt P0DTC2).

For orientation: Kd means a measure of binding affinity in units of concentration. A high value points to weaker binding. As to Jacalin (natural protein), the Kd worked out at 320 nM in assay [1], 339 nM in assay [2] and 478 nM in assay [3].

“Recombinant Microcystis viridis NIES-102 lectin (rMVL) (from UniProt Q9RHG4 1-114) (natural protein)”: in assay [3], the Kd worked out at 2730 nM.

(Values after publication PMC11203576.)
